Here are results for two substances from PMC2992810.

The target of experiment [1] is MC2R-MRAP complex (HA-hMC2R co-expressed with mMRAP on CHO cells) (human | mouse) (UniProt Q01718).
For experiment [2] the target is unchanged. The source holds these as a separate data set.
Experiment [3] deals with MC2R-MRAP2 complex (HA-hMC2R co-expressed with mMRAP2 on CHO cells) (human | mouse) (UniProt Q01718).
Experiment [4] deals with MC2R-MRAP complex (HA-hMC2R co-expressed with mMRAP on CHO cells) (human | mouse) (UniProt Q01718). Briefly: radioligand binding.
In experiment [5] the target is HA-hMC4R (human) (UniProt P32245).
Experiment [6] shares this target. The experiment is described as follows: radioligand binding.
Experiment [7] has the same target. The experiment is described as follows: radioligand binding. This is another data set of the same source.
Experiment [8] has the same target. Briefly: radioligand binding. This is another data set of the same source.

Read-outs that look alike come from different tables or passages of the source.

Sequence of UniProt P32245 (P32245 whole entry): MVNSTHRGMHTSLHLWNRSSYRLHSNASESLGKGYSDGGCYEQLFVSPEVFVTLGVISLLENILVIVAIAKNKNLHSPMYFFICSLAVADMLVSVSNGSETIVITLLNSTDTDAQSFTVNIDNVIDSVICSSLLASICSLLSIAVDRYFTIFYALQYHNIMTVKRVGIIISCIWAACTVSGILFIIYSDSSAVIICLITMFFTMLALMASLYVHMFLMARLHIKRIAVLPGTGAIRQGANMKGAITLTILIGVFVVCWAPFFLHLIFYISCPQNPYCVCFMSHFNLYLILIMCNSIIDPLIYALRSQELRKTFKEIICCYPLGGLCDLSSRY

In experiment [1], ACTH(1–39) (peptide) registered an EC50 of cAMP accumulation (LANCE assay, 20 min) in CHO cells of 2.4 nM. The EC50 of phosphorylation of ERK1 and ERK2 in serum-deprived HEK 293 cells (5 min) in experiment [2] turned out to be 1.1 nM; in experiment [3] it was 68 nM. Besides, the IC50 in experiment [4] was determined as 5.7 nM.
Take NDP-α-MSH (peptide): in experiment [5], the EC50 of the CRE-Luc cAMP reporter response in CHO cells containing MC4R alone stood at 0.11 nM. In experiment [5], this substance showed an EC50 of the CRE-Luc cAMP reporter response in CHO cells containing MC4R and MRAP of 0.27 nM. For the same substance, the 50% inhibitory concentration (IC50) in experiment [6] stood at 0.92 nM; in experiment [7], 1.1 nM; in experiment [8], 0.19 nM.
